Patent publication US20110045554A1 (University of California, published 2011)

Columns and labels:
citrate synthase = experiment: cell-based or functional assay
[1] = biological target: the molecule itself; experiment: transmission electron microscopy; self-association into filaments

reduction of citrate synthase aggregation at 45° C. (citrate synthase): 2 :1 monomer-to-monomer stoichiometric ratio
stabilization of citrate synthase against aggregation at 45° C. (citrate synthase): 5 :1 monomer-to-monomer stoichiometric ratio
B1: Methanococcus jannaschii gamma-Prefoldin (γ-PFD) (other)
chain: MVNEVIDINEAVRAYIAQIEGLRAEIGRLDATIATLRQSLATLKSLKTLGEGKTVLVPVGSIAQVEMKVEKMDKVVVSVGQNISAELEYEEALKYIEDEIKKLLTFRLVLEQAIAELYAKIEDLIAEAQQTSEEEKAEEEENEEKAE
notes: Recombinant protein expressed in E. coli from the genomic M. jannaschii gene; It forms long filaments of identical subunits; also called γ prefoldin; Mj-γ-PFD
binding result [1]: binds
